B1: rs4728142-A (dsDNA)
DNA 1: CCAAAAAGCTCTGAGCCAGTGTTAGTAAGAAATGG
DNA 2: CCATTTCTTACTAACACTGGCTCAGAGCTTTTTGG
B2: IRF5-promoter (dsDNA)
DNA 1: CCGGGAGCCCCGCTGGAGGCTGGCTTGGA
DNA 2: TCCAAGCCAGCCTCCAGCGGGGCTCCCGG

Molecular target: ZBTB3 recombinant protein (UniProt Q9H5J0 1-574)
Test: EMSA; 10 ng recombinant protein; EMSA: 20 nM biotin probe, 100 mM Tris pH 7.5, 55 mM KCl, 2.5 mM MgCl2, 1 mM DTT, 500 ng poly(dI-dC), 5% glycerol, 0.05% NP-40, 20 ul, room temperature 20 min; 500x unlabeled competitor; 6% native PAGE, 0.5x TBE
Details: protein: commercial; chain copies: 2; label: 5' biotin on strand 1; blunt

ZBTB3 recombinant protein, sequence (Q9H5J0 whole entry): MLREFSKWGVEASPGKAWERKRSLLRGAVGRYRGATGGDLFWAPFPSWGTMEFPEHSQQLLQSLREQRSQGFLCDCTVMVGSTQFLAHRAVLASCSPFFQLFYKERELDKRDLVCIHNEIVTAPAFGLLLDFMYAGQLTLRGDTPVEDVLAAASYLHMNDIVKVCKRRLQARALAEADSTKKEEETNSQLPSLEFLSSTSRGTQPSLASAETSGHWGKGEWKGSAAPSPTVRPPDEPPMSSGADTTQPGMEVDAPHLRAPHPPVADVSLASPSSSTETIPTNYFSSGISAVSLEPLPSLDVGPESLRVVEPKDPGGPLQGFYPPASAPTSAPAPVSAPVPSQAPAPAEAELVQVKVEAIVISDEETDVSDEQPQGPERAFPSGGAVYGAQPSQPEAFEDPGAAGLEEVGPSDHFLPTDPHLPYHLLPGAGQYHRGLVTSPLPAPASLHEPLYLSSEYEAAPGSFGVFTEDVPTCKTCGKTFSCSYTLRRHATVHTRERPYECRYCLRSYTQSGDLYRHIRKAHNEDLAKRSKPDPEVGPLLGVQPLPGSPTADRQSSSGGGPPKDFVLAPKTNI

Row | Binder | binding result
1 | B1 | binds
2 | B2 | binds

— publication PMC9984425, “An autoimmune pleiotropic SNP modulates IRF5 alternative promoter usage through ZBTB3-mediated chromatin looping”
